Measurements from US20040086863A1 (published 2004).

Experiments:
[1] = biological target: T1, HA-tagged IRS-1 PH domain mutant PH^W106A (rat, UniProt P35570 3-133); assay: GST pull-down from COS-1 lysates (500 µg), anti-HA western blot
T1 construct: range 3-133; Expressed transiently in COS-1 cells; The residue limits are not restated for this mutant; not shown: HA tag
T1 sequence (looked up): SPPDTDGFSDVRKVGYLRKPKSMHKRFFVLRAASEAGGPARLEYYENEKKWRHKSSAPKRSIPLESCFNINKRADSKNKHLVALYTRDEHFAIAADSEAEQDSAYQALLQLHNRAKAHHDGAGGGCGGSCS

[2] = biological target: T2, HA-tagged PH domain of mSos1 (residues 448-577) (mouse, UniProt Q62245 448-577); assay: GST pull-down from yeast lysates, anti-HA western blot
T2 construct: range 448-577; Expressed in L40 yeast; The species is read from the printed prefix in 'mSos1'; also called SOS1 PH domain; not shown: HA tag
T2 sequence (looked up): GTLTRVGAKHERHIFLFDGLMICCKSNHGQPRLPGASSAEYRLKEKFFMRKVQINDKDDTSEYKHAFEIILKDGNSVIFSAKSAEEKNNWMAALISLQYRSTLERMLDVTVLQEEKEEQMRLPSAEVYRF

[3] = biological target: T3, HA-tagged PH domain of mouse Ect-2 (residues 495-621) (mouse, UniProt Q07139 670-796); assay: as above
T3 construct: range 670-796; Expressed in L40 yeast; also called ECT-2 PH domain; not shown: HA tag
T3 sequence (looked up): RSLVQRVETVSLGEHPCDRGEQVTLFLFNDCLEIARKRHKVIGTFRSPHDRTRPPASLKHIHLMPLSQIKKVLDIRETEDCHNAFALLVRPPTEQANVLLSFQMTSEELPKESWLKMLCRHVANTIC

[4] = biological target: T4, HA-tagged PH domain of human RasGAP (residues 464-603) (human, UniProt P20936 464-603); assay: as above
T4 construct: range 464-603; Expressed in L40 yeast; also called Ras-GAP (GAP) PH domain; not shown: HA tag
T4 sequence (looked up): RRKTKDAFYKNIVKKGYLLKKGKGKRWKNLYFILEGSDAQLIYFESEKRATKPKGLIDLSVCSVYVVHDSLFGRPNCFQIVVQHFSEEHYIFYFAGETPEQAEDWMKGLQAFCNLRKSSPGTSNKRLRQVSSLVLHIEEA

Measured: binding result

B1: GST-PHIP fusion protein containing PHIP residues 8-209 (PBR) isolated from the yeast clone VP1.32 (other)
chain: VGELTENGLTLEEWLPSAWITDTLPRRCPFVPQMGDEVYYFRQGHEAYVEMARKNKIYSINPKKQPWHKMELREQELMKIVGIKYEVGLPTLCCLKLAFLDPDTGKLTGGSFTMKYHDMPDVIDFLVLRQQFDDAKYRRWNIGDRFRSVIDDAWWFGTIESQEPLQPEYPDSLFQCYNVCWDNGDTEKMSPWDMELIPNNAV
notes: Bacterially expressed and immobilized for pull-downs; also called GST-PHIP (PBR); not shown: glutathione S-transferase encoded by the pGEX-3X vector
no binding: [1] | [2] | [3] | [4]
